The text below walks through data of patent US20160272690A1.

As a reminder, the IC50 is the concentration that gives 50% inhibition.

In this test the target is TEAD. Briefly: IC50 for TEAD binding (TR-FRET test).

Bridges are numbered along the chain shown (N, C = ends). Where no end group is shown, it is not given here. [ ]: non-standard residue; d: D form. hCys = N[C@@H](CCS)C(=O)O; Orn = NCCC[C@H](N)C(=O)O; Dab = NCC[C@H](N)C(=O)O

Sequence of TEAD (P28347 209-426): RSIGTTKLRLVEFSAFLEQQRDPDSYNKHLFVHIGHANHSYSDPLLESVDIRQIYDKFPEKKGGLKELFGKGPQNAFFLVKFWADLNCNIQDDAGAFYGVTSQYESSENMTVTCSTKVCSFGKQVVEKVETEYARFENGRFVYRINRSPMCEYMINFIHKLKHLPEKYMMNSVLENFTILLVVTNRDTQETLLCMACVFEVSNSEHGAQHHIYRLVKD

VPF[hCys]LR[Orn]LPDSFCKPPE (disulfide 4-13) [polypeptide represented by SEQ ID NO.: 5]: the IC50 is 43 nM.
Next, VPF[hCys]LR[Dab]LPDSFCKPPE (disulfide 4-13) [polypeptide represented by SEQ ID NO.: 6]: 28 nM.
